The values below come from publication PMC5685503.

The target in the experiment is isolated phosphodiesterase (PDE) domain of RhoPDE (Salpingoeca rosetta) (UniProt F2TZN0). The experiment is described as follows: SEC. For orientation: SEC sorts molecules by how far they enter the pores of the column.

“isolated phosphodiesterase (PDE) domain of RhoPDE (from UniProt F2TZN0 386-702) (domain or fragment)” had a stoichiometry N of 2.

A word on the stoichiometry N: it is the number of molecules, sites or subunits per partner or assembly.
